Data from US20240343823A1 (Ablynx, published 2024).

Target: T1, human GPC3 on tumor cell lines (HepG2, Huh-7, NCI-H661, MKN-45, NCI-H23, BxPC-3, NCI-H292) (human, UniProt P51654 25-554)
T1 construct: Endogenous GPC3 of human cancer cell lines; also called GPC3 on HepG2; GPC3 on Huh-7
Test: pHAb internalization assay on Huh-7 cells, flow cytometry (BD FACSArray, yellow laser); indirect readout that needs binding and uptake; concentration not given
Procedure: The assay was read on a BD FACSArray with a yellow laser (pHAb: excitation maximum at 532 nm, emission maximum at 560 nm). The internalization rate was determined by quantifying the internalization at 37° C. at different timepoints (0.5 h, 3 h, 24 h and 48 h) compared to 4° C. at 0.5 h (Table 10, FIG. 8A).

B1: A022600373 (bispecific antibody)
chain: DVQLVESGGGVVQPGGSLRLSCVASGYVHKINFYGWYRQAPGKEREKVAHISIGDQTDYADSAKGRFTISRDESKNTVYLQMNSLRPEDTAAYYCRALSRIWPYDYWGQGTLVTVSSGGGGSGGGGSGGGGSGGGGSEVQLVESGGGVVQPGGSLRLSCAASGFTFRSFGMSWVRQAPGKGPEWVSSISGSGSDTLYADSVKGRFTISRDNSKNTLYLQMNSLRPEDTALYYCTIGGSLSRSSQGTLVTVSSGGC
modifications: pHAb dye on the C-terminal GGC (degree of labeling 1)
notes: also called TCE01-20GS-ALB23002-GGC
binding result: no binding
